Test results as given in US20170349669A1 (Hoffmann-La Roche, published 2017).
Where a chain is given by its changes, count along the chain named. Like-named read-outs stand apart in the source and are kept apart here.

T1: human Ang-2-RBD-Fc (human, UniProt O15123 275-496, limits assumed)
T1 construct: domain: RBD; Used as analyte in solution; The KD is called apparent; not shown: Fc part
T1 sequence (looked up): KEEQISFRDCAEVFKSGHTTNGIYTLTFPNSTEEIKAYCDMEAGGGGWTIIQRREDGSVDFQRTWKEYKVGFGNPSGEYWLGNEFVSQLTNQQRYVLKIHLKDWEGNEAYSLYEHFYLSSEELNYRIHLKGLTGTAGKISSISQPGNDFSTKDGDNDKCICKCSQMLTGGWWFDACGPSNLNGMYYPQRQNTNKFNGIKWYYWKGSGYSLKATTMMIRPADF

T2: human VEGFA-121-His (human, UniProt P15692-9 27-147)
T2 construct: Captured on an anti-His antibody surface; P15692 is the canonical VEGF-A entry, and the 121 isoform is one of its splice forms; also called VEFGA-121-His; not shown: His tag
T2 sequence (looked up): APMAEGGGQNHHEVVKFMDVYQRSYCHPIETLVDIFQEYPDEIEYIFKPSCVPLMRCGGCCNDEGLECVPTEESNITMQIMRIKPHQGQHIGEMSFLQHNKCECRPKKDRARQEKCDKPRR

T3: human IL17 (human, UniProt Q16552 24-155)
T3 construct: Used as analyte in solution; also called IL17-A
T3 sequence (looked up): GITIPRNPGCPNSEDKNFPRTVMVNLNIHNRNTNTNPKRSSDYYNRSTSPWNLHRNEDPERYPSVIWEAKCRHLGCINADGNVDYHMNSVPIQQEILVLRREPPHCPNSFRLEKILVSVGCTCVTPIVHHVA

T4: TWEAK (human, UniProt O43508 94-249, limits assumed)
T4 construct: The assay paragraph says only 'TWEAK'; also called human TWEAK; TNF-related weak inducer of apoptosis
T4 sequence (looked up): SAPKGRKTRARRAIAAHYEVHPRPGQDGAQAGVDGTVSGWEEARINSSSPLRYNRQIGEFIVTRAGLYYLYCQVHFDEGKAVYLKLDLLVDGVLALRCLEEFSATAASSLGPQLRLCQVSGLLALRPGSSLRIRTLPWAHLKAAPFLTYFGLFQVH

B1: Ang2VEGF_280 (bispecific antibody, human IgG1, kappa)
heavy 1: not shown
light 1: EVQLVESGGGLVQPGGSLRLSCAASGYTFTNYGMNWVRQAPGKGLEWVGWINTYTGEPTYAADFKRRFTFSLDTSKSTAYLQMNSLRAEDTAVYYCAKYPHYYGSSHWYFDVWGQGTLVTVSSASTKGPSVFPLAPSSKSTSGGTAALGCLVKDYFPEPVTVSWNSGALTSGVHTFPAVLQSSGLYSLSSVVTVPSSSLGTQTYICNVNHKPSNTKVDKKVEPKSC
heavy 2: not shown
light 2: QPGLTQPPSVSVAPGQTARITCGGNNIGSKSVHWYQQKPGQAPVLVVYDDSDRPSGIPERFSGSNSGNTATLTISRVEAGDEADYYCQVWDSSSDHYVFGTGTKVTVLRTVAAPSVFIFPPSDKKLKSGTASVVCLLNNFYPREAKVQWKVDNALQSGNSQESVTEQDSKDSTYSLSSTLTLSKADYEKHKVYACEVTHQGLSSPVTKSFNRGEC
notes: Bivalent CrossMAb-Fab with four different chains; also called Ang2VEGF-0280
B2: Ang2VEGF_290 (bispecific antibody, human IgG1, kappa, lambda)
heavy 1: not shown
light 1: B1 light 1
heavy 2: not shown
light 2: QPGLTQPPSVSVAPGQTARITCGGNNIGSKSVHWYQQKPGQAPVLVVYDDSDRPSGIPERFSGSNSGNTATLTISRVEAGDEADYYCQVWDSSSDHYVFGTGTKVTVLGQPKAAPSVTLFPPSSEELQANKATLVCLISDFYPGAVTVAWKADSSPVKAGVETTTPSKQSNNKYAASSYLSLTPEQWKSHRSYSCQVTHEGSTVEKTVAPTECS
notes: The Ang2 arm has a lambda light chain; also called Ang2VEGF-0290 (wt); Ang2VEGF-0290
B3: Ang2VEGF_468 (bispecific antibody, human IgG1, kappa)
heavy 1: not shown
light 1: B1 light 1
heavy 2: not shown
light 2: B1 light 2
notes: Wild type CH3 domains, no knob-into-hole
B4: Ang2VEGF_467 (bispecific antibody, human IgG1, kappa)
heavy 1: not shown
light 1: B1 light 1
heavy 2: not shown
light 2: B1 light 2
notes: as for B3
B5: Ang2VEGF_279 (bispecific antibody, human IgG1, kappa, lambda)
heavy 1: not shown
light 1: B1 light 1
heavy 2: not shown
light 2: B2 light 2 with E125K, E126K
notes: The Ang2 arm has a lambda light chain; also called Ang2VEGF-0279
B6: TweakIL17_101 (bispecific antibody, human IgG4 S228P, kappa)
heavy 1: DIQMTQSPSSVSASVGDRVTITCQASQNIYSNLAWYQQKPGKAPKLLIYTASYLASGVPSRFSGSGSGTDYTLTISSLQPEDFATYYCQTAYYNSRPDTVAFGGGTKVEIKRTVAAPSVFIFPPSDEQLKSGTASVVCLLNNFYPREAKVQWKVDNALQSGNSQESVTEQDSKDSTYSLSSTLTLSKADYEKHKVYACEVTHQGLSSPVTKSFNRGECPPCPPCPAPEFEGGPSVFLFPPKPKDTLMISRTPEVTCVVVDVSQEDPEVQFNWYVDGVEVHNAKTKPREEQFNSTYRVVSVLTVLHQDWLNGKEYKCKVSNKGLPSSIEKTISKAKGQPREPQVYTLPPCQEEMTKNQVSLWCLVKGFYPSDIAVEWESNGQPENNYKTTPPVLDSDGSFFLYSRLTVDKSRWQEGNVFSCSVMHEALHNHYTQKSLSLSL
light 1: QVQLVQSGAEVKKPGSSVKVSCKASGFDFSTYYMSWVRQAPGQGLEWMGTVYVRQGTTYYASWLNGRVTITADESTSTAYMELSSLRSEDTAVYYCARGGYNYDDAFVIWGQGTLVTVSSASTKGPSVFPLAPCSRSTSESTAALGCLVKDYFPEPVTVSWNSGALTSGVHTFPAVLQSSGLYSLSSVVTVPSSSLGTKTYTCNVDHKPSNTKVDKRVESKYG
heavy 2: EVQLVESGGGLVQPGGSLRLSCAASGFSLDSYGVHWVRQATGKGLEWVSVIWSDGTTTYNSALKSRFTISRENAKNSLYLQMNSLRAGDTAVYYCARDTHYRLYYYAMDYWGQGTTVTVSSASTKGPSVFPLAPCSRSTSESTAALGCLVKDYFPEPVTVSWNSGALTSGVHTFPAVLQSSGLYSLSSVVTVPSSSLGTKTYTCNVDHKPSNTKVDKRVESKYGPPCPPCPAPEFEGGPSVFLFPPKPKDTLMISRTPEVTCVVVDVSQEDPEVQFNWYVDGVEVHNAKTKPREEQFNSTYRVVSVLTVLHQDWLNGKEYKCKVSNKGLPSSIEKTISKAKGQPREPQVCTLPPSQEEMTKNQVSLSCAVKGFYPSDIAVEWESNGQPENNYKTTPPVLDSDGSFFLVSRLTVDKSRWQEGNVFSCSVMHEALHNHYTQKSLSLSL
light 2: DIVMTQSPLSLPVTPGEPASISCRSSQSLVHSNGDTYFHWYLQKPGQSPQLLIYKVSNRFSGVPDRFSGSGSGTDFTLKISRVEAEDVGVYYCSQTTHAPFTFGQGTKLEIKRTVAAPSVFIFPPSDEQLKSGTASVVCLLNNFYPREAKVQWKVDNALQSGNSQESVTEQDSKDSTYSLSSTLTLSKADYEKHKVYACEVTHQGLSSPVTKSFNRGEC
notes: also called TweakIL17_101 (wt); TweakIL17_0101
B7: TweakIL17_0128 (bispecific antibody, human IgG4 S228P, kappa)
heavy 1: B6 heavy 1 with Q38E, Q128E
light 1: B6 light 1 with Q39K
heavy 2: B6 heavy 2 with Q39E, K151E, K217E
light 2: B6 light 2 with Q43K, E128K, Q129K
notes: also called TweakIL17_128
B8: TweakIL17_103 (bispecific antibody, human IgG4 S228P, kappa)
heavy 1: B6 heavy 1 with Q128E
light 1: B6 light 1
heavy 2: B6 heavy 2 with K151E, K217E
light 2: B6 light 2 with E128K, Q129K
notes: also called TweakIL17_0103

Assays:
[1] = target: T1, human Ang-2-RBD-Fc; test: SPR Biacore T200, apparent KD, antibody captured via anti-human F(ab')2, Ang2-RBD-Fc as analyte
Experimental: (§1) Binding of indicated antibodies to human Ang-2-RBD-Fc was investigated by surface plasmon resonance using a BIACORE® T200 instrument (GE Healthcare). Around 8000 (RU) of goat anti human F(ab′)₂ (10 μg/ml anti human F(ab)′₂; Order Code: 28958325; GE Healthcare Bio-Sciences AB, Sweden) were coupled on a Series S CM5 chip (GE Healthcare BR-1005-30) at pH 5.0 by using an amine coupling kit supplied by the GE Healthcare. HBS-N (10 mM HEPES, 150 mM NaCl pH 7.4, GE Healthcare) was used as running buffer during the immobilization procedure. For the following kinetic characterization, sample and running buffer was PBS-T (10 mM phosphate buffered saline including 0.05% Tween20) at pH 7.4. The flow cell was set to 25° C.—and the sample block set to 12° C.—and primed with running buffer twice prior to kinetic characterization.
(§2) The bispecific antibody was captured by injecting a 5 nM solution for 25 sec at a flow of 5 μl/min. The association was measured by injection of human Ang2-RBD-Fc in various concentrations in solution for 120 sec at a flow of 30 μl/min starting with 100 nM in 1:3 serial dilutions. The dissociation phase was monitored for up to 180 sec and triggered by switching from the sample solution to running buffer. The surface was regenerated by 60 sec washing with a Glycine pH 2.1 solution at a flow rate of 30 μl/min. Bulk refractive index differences were corrected by subtracting the response obtained from a goat anti human F(ab′)₂ surface. Blank injections are also subtracted (=double referencing). For calculation of apparent KD the Langmuir 1:1 model was used.

[2] = target: T1, human Ang-2-RBD-Fc; test: as above; remark: listed apart in the source
Experimental: as §1, §2

[3] = target: T2, human VEGFA-121-His; test: SPR Biacore T200, VEGFA-121-His captured via anti-His, antibody as analyte, 1:1 Langmuir
Experimental: as §1, with “VEGFA-121” for “Ang-2-RBD-Fc”, “10000” for “8000”, “of” for “of goat”, “His antibody (1” for “human F(ab′)₂ (10”, “His antibody;” for “human F(ab)′₂;”, “28995056;” for “28958325;”
(§3) VEFGA-121-His was captured by injecting a 0.5 μg/ml solution for 30 sec at a flow of 5 μl/min. The association was measured by injection of the indicated antibodies in various concentrations in solution for 180 sec at a flow of 30 μl/min starting with 1000 nM in 1:3 serial dilutions. The dissociation phase was monitored for up to 600 sec and triggered by switching from the sample solution to running buffer. The surface was regenerated by 60 sec washing with a Glycine pH 1.5 solution at a flow rate of 30 μl/min. Bulk refractive index differences were corrected by subtracting the response obtained from a anti His antibody surface. Blank injections are also subtracted (=double referencing). For calculation of KD and other kinetic parameters the Langmuir 1:1 model was used.

[4] = target: T2, human VEGFA-121-His; test: as above; remark: listed apart in the source
Experimental: as §1, with “VEGFA-121” for “Ang-2-RBD-Fc”, “10000” for “8000”, “of” for “of goat”, “His antibody (1” for “human F(ab′)₂ (10”, “His antibody;” for “human F(ab)′₂;”, “28995056;” for “28958325;”
as §3

[5] = target: T3, human IL17; test: SPR Biacore T200 25 C, antibody captured via anti-human F(ab')2, human IL17 as analyte, 1:1 Langmuir
Experimental: Around 6000 resonance units (RU) of the capturing system (15 μg/ml goat anti human F(ab′)2; Order Code: 28958325; GE Healthcare Bio-Sciences AB, Schweden) were coupled on a CM5 chip at pH 5.0 by using an amine coupling kit supplied by the GE Healthcare. The sample and system buffer was PBS-T (10 mM phosphate buffered saline including 0.05% Tween 20) pH 7.4. The bispecific antibody was captured by injecting a 50 nM solution for 90 sec at a flow of 10 μl/min. Association was measured by injection human IL17 in various concentrations in solution for 3 min at a flow of 30 μl/min starting with 50 nM in 1:1 serial dilutions. The dissociation phase was monitored for up to 10 min and triggered by switching from the sample solution to running buffer. The surface was regenerated twice by 60 sec wash with a 10 mM glycine pH 2.1 solution at a flow rate of 30 μl/min. Bulk refractive index differences were corrected by subtracting the response obtained from a goat anti human F(ab′)2 surface. Blank injections are also subtracted (=double referencing). For calculation of apparent KD and other kinetic parameters, the Langmuir 1:1 model was used.

[6] = target: T4, TWEAK; test: SPR Biacore T200 25 C, apparent KD, TWEAK amine-coupled on C1 chip, antibody as analyte

Binder	Kd [1] [nM]	Kd [2] [nM]	Kd [3] [nM]	Kd [4] [nM]	Kd [5] [nM]	Kd [6] [nM]
B1	3	3	7	7		
B2	3			8		
B3		0.5	22			
B4		0.5	17			
B5	5			6		
B6					0.1	< 0.1
B7					0.1	< 0.1
B8					0.1	< 0.1
